Results from patent US20150005237A1, “PEPTIDIC INHIBITOR OF SIGNAL TRANSMISSION FROM G-ALPHA-S TO G-ALPHA-I-COUPLED RECEPTOR CASCADES” (UNIVERSITÄT INNSBRUCK, priority 2011, published 2015).

What was measured:
[1] = target: Gαi3 transiently overexpressed in COS7 cells; experiment: cAMP agarose precipitation from COS7 lysates after 15 min forskolin, immunoblot densitometry
[2] = target: Gαi of δOR-HEK293 cells (endogenous, receptor-activated); experiment: cell-based or functional assay

| Substance | fold enrichment of R:Gαi3 complexes (forskolin pre-treatment against basal conditions) [1] | sensitivity of the MAPK pathway (SNC80-mediated ERK1/2 phosphorylation) to stimulation by the δOR agonist [2] |
| --- | --- | --- |
| endogenous PKA regulatory subunits (R/Reg) of COS7 cells, bound to 2AHA-cAMP-coupled agarose beads | 3.8 fold |  |
| endogenous PKA regulatory subunits (R; RII/RegII) of δOR-HEK293 cells, cAMP-activated |  | 7 fold |
